In publication PMC4260256, “A novel serine hydroxymethyltransferase from Arthrobacter nicotianae: characterization and improving catalytic efficiency by rational design” (BMC Biotechnology, 2014) one finds Km and kcat/Km data, which are given here for one substance.

The data set has as its system NC(C(=O)O)C(O)c1ccccc1. Nature of the data set: purified protein. The conditions noted are these: pH 7.8; 40.0 °C.

For the substance AnSHMT (Glutamicibacter nicotianae), the Km is 57.86 ± 0.07 mM and the kcat/Km is 27.7 M⁻¹ s⁻¹.
